Patent US20210246166A1 (Bayer, published 2021)
Numbered stars: 1 amine (or outer) side, 2 acyl side, 3 side chain; on linkers, the order of the positions; unused ones are H or OH. Bridge positions count the residues as written; N and C are the ends. Square brackets hold non-standard residues; d marks the D form. Ends that are not written are not given here. * marks the point of attachment. X17 = 2‑((1S,2S)-1-(Amino)-2-methylbutyl)‑1,3‑oxazole‑4‑carboxylic acid, CC[C@H](C)[C@H](N[*:1])c1nc(C(=O)[*:2])co1; (3-Chloro-Ph)G = 3-chlorophenylglycine, O=C([C@@H](N[*:1])c1cccc(Cl)c1)[*:2]; Pro(trans-4-F) = O=C(O)[C@@H]1C[C@@H](F)CN1; Oic = O=C(O)[C@@H]1C[C@@H]2CCCC[C@@H]2N1; Phe(3-Br) = N[C@@H](Cc1cccc(Br)c1)C(=O)O; Cyclobutanecarbonyl = O=C(C1CCC1)*; tBuAla = CC(C)(C)C[C@H](N)C(=O)O; Pen = CC(C)(S)[C@H](N)C(=O)O; αMeP = C[C@@]1(C(=O)O)CCCN1; NMeC = CN[C@@H](CS)C(=O)O; NPhGly = O=C(O)CNc1ccccc1; NMeA = CN[C@@H](C)C(=O)O; Orn = NCCC[C@H](N)C(=O)O; Sar = CNCC(=O)O

T1: Recombinant human MASP1 enzyme (fragment corresponding to amino acids 297-699, C-terminal His Tag) (human, UniProt P48740 297-699)
T1 sequence: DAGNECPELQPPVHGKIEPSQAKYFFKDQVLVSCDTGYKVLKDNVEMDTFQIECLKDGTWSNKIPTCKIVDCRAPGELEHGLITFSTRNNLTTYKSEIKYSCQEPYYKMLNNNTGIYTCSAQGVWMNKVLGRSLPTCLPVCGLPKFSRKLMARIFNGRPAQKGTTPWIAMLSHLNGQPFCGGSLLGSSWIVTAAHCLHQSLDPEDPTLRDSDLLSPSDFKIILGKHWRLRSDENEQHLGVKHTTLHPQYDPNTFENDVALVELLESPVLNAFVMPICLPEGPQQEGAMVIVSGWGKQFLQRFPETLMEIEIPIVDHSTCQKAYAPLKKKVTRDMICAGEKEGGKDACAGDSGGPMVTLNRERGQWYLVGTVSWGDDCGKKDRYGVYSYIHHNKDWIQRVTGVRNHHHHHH

T2: recombinant human MASP1 active protease (amino acids 297-699, C-terminal His Tag) (human, UniProt P48740 297-699)
T2 sequence: T1 sequence

B1: (Orn)-IC+SRS-((tBu)A)-PPI-((N-Me)C)+(2-[(1S,2S)-1-(Amino)-2-methylbutyl]-1,3-oxazole-4-carboxylic acid)-D-NH2 (peptide)
peptide: [Orn]ICSRS[tBuAla]PPI[NMeC][X17]D-NH2
modifications: disulfide 3-11; N-terminus assumed
SMILES: CC[C@H](C)[C@H](NC(=O)[C@@H](N)CCCN)C(=O)N[C@H]1CSSC[C@@H](C(=O)N[C@H](c2nc(C(=O)N[C@@H](CC(=O)O)C(N)=O)co2)[C@@H](C)CC)N(C)C(=O)[C@H]([C@@H](C)CC)NC(=O)[C@@H]2CCCN2C(=O)[C@@H]2CCCN2C(=O)[C@H](CC(C)(C)C)NC(=O)[C@H](CO)NC(=O)[C@H](CCCNC(=N)N)NC(=O)[C@H](CO)NC1=O
B2: ((N-Me)A)-IC+SRSLPPIC+IPD-NH2 (peptide)
peptide: [NMeA]ICSRSLPPICIPD-NH2
modifications: disulfide 3-11; N-terminus assumed
SMILES: CC[C@H](C)[C@H](NC(=O)[C@H](C)NC)C(=O)N[C@H]1CSSC[C@@H](C(=O)N[C@H](C(=O)N2CCC[C@H]2C(=O)N[C@@H](CC(=O)O)C(N)=O)[C@@H](C)CC)NC(=O)[C@H]([C@@H](C)CC)NC(=O)[C@@H]2CCCN2C(=O)[C@@H]2CCCN2C(=O)[C@H](CC(C)C)NC(=O)[C@H](CO)NC(=O)[C@H](CCCNC(=N)N)NC(=O)[C@H](CO)NC1=O
B3: ((N-Me)G)-IC+SRSLPPIC+I-((trans-4-Fluoro)P)-D-OH (peptide)
peptide: [Sar]ICSRSLPPICI[Pro(trans-4-F)]D-OH
modifications: disulfide 3-11; N-terminus assumed
SMILES: CC[C@H](C)[C@H](NC(=O)CNC)C(=O)N[C@H]1CSSC[C@@H](C(=O)N[C@H](C(=O)N2C[C@H](F)C[C@H]2C(=O)N[C@@H](CC(=O)O)C(=O)O)[C@@H](C)CC)NC(=O)[C@H]([C@@H](C)CC)NC(=O)[C@@H]2CCCN2C(=O)[C@@H]2CCCN2C(=O)[C@H](CC(C)C)NC(=O)[C@H](CO)NC(=O)[C@H](CCCNC(=N)N)NC(=O)[C@H](CO)NC1=O
B4: ((N-Me)G)-IC+TRSLPPIC+IPD-OH (peptide)
peptide: [Sar]ICTRSLPPICIPD-OH
modifications: disulfide 3-11; N-terminus assumed
SMILES: CC[C@H](C)[C@H](NC(=O)CNC)C(=O)N[C@H]1CSSC[C@@H](C(=O)N[C@H](C(=O)N2CCC[C@H]2C(=O)N[C@@H](CC(=O)O)C(=O)O)[C@@H](C)CC)NC(=O)[C@H]([C@@H](C)CC)NC(=O)[C@@H]2CCCN2C(=O)[C@@H]2CCCN2C(=O)[C@H](CC(C)C)NC(=O)[C@H](CO)NC(=O)[C@H](CCCNC(=N)N)NC(=O)[C@H]([C@@H](C)O)NC1=O
B5: AIC+SRSLPP-((3-Chloro-Ph)G)-C+IPD-NH2 (peptide)
peptide: AICSRSLPP[(3-Chloro-Ph)G]CIPD-NH2
modifications: disulfide 3-11; N-terminus assumed
SMILES: CC[C@H](C)[C@H](NC(=O)[C@H](C)N)C(=O)N[C@H]1CSSC[C@@H](C(=O)N[C@H](C(=O)N2CCC[C@H]2C(=O)N[C@@H](CC(=O)O)C(N)=O)[C@@H](C)CC)NC(=O)[C@H](c2cccc(Cl)c2)NC(=O)[C@@H]2CCCN2C(=O)[C@@H]2CCCN2C(=O)[C@H](CC(C)C)NC(=O)[C@H](CO)NC(=O)[C@H](CCCNC(=N)N)NC(=O)[C@H](CO)NC1=O
B6: IC+SRSLP-(Oic)-I-(Pen)+IPD-NH2 (peptide)
peptide: ICSRSLP[Oic]I[Pen]IPD-NH2
modifications: disulfide 2-10; N-terminus assumed
SMILES: CC[C@H](C)[C@H](N)C(=O)N[C@H]1CSSC(C)(C)[C@@H](C(=O)N[C@H](C(=O)N2CCC[C@H]2C(=O)N[C@@H](CC(=O)O)C(N)=O)[C@@H](C)CC)NC(=O)[C@H]([C@@H](C)CC)NC(=O)[C@@H]2C[C@@H]3CCCC[C@@H]3N2C(=O)[C@@H]2CCCN2C(=O)[C@H](CC(C)C)NC(=O)[C@H](CO)NC(=O)[C@H](CCCNC(=N)N)NC(=O)[C@H](CO)NC1=O
B7: (Cyclobutanecarboxylic)-IC+SRS-((tBu)A)-PPI-((N-Me)C)+I-NH2 (peptide)
peptide: Cyclobutanecarbonyl-ICSRS[tBuAla]PPI[NMeC]I-NH2
modifications: disulfide 2-10
SMILES: CC[C@H](C)[C@H](NC(=O)[C@@H]1CSSC[C@H](NC(=O)[C@@H](NC(=O)C2CCC2)[C@@H](C)CC)C(=O)N[C@@H](CO)C(=O)N[C@@H](CCCNC(=N)N)C(=O)N[C@@H](CO)C(=O)N[C@@H](CC(C)(C)C)C(=O)N2CCC[C@H]2C(=O)N2CCC[C@H]2C(=O)N[C@@H]([C@@H](C)CC)C(=O)N1C)C(N)=O
B8: ((N-Me)G)-IC+SRSLPP-IC+I-((2-Me)P)-D-OH (peptide)
peptide: [Sar]ICSRSLPPICI[αMeP]D-OH
modifications: disulfide 3-11; N-terminus assumed
SMILES: CC[C@H](C)[C@H](NC(=O)CNC)C(=O)N[C@H]1CSSC[C@@H](C(=O)N[C@H](C(=O)N2CCC[C@@]2(C)C(=O)N[C@@H](CC(=O)O)C(=O)O)[C@@H](C)CC)NC(=O)[C@H]([C@@H](C)CC)NC(=O)[C@@H]2CCCN2C(=O)[C@@H]2CCCN2C(=O)[C@H](CC(C)C)NC(=O)[C@H](CO)NC(=O)[C@H](CCCNC(=N)N)NC(=O)[C@H](CO)NC1=O
B9: FIC+SRSLP-(Oic)-I-(Pen)+IP-NH2 (peptide)
peptide: FICSRSLP[Oic]I[Pen]IP-NH2
modifications: disulfide 3-11; N-terminus assumed
SMILES: CC[C@H](C)[C@H](NC(=O)[C@@H](N)Cc1ccccc1)C(=O)N[C@H]1CSSC(C)(C)[C@@H](C(=O)N[C@H](C(=O)N2CCC[C@H]2C(N)=O)[C@@H](C)CC)NC(=O)[C@H]([C@@H](C)CC)NC(=O)[C@@H]2C[C@@H]3CCCC[C@@H]3N2C(=O)[C@@H]2CCCN2C(=O)[C@H](CC(C)C)NC(=O)[C@H](CO)NC(=O)[C@H](CCCNC(=N)N)NC(=O)[C@H](CO)NC1=O
B10: IC+SRS-((tBu)A)-PPI-(Pen)+IPP-NH2 (peptide)
peptide: ICSRS[tBuAla]PPI[Pen]IPP-NH2
modifications: disulfide 2-10; N-terminus assumed
SMILES: CC[C@H](C)[C@H](N)C(=O)N[C@H]1CSSC(C)(C)[C@@H](C(=O)N[C@H](C(=O)N2CCC[C@H]2C(=O)N2CCC[C@H]2C(N)=O)[C@@H](C)CC)NC(=O)[C@H]([C@@H](C)CC)NC(=O)[C@@H]2CCCN2C(=O)[C@@H]2CCCN2C(=O)[C@H](CC(C)(C)C)NC(=O)[C@H](CO)NC(=O)[C@H](CCCNC(=N)N)NC(=O)[C@H](CO)NC1=O
B11: ((N-Ph)G)-IC+SRS-((tBu)A)-PPI-((N-Me)C)+I-NH2 (peptide)
peptide: [NPhGly]ICSRS[tBuAla]PPI[NMeC]I-NH2
modifications: disulfide 3-11; N-terminus assumed
SMILES: CC[C@H](C)[C@H](NC(=O)[C@@H]1CSSC[C@H](NC(=O)[C@@H](NC(=O)CNc2ccccc2)[C@@H](C)CC)C(=O)N[C@@H](CO)C(=O)N[C@@H](CCCNC(=N)N)C(=O)N[C@@H](CO)C(=O)N[C@@H](CC(C)(C)C)C(=O)N2CCC[C@H]2C(=O)N2CCC[C@H]2C(=O)N[C@@H]([C@@H](C)CC)C(=O)N1C)C(N)=O
B12: AIC+SRSLP-(Oic)-IC+I-OH (peptide)
peptide: AICSRSLP[Oic]ICI-OH
modifications: disulfide 3-11; N-terminus assumed
SMILES: CC[C@H](C)[C@H](NC(=O)[C@@H]1CSSC[C@H](NC(=O)[C@@H](NC(=O)[C@H](C)N)[C@@H](C)CC)C(=O)N[C@@H](CO)C(=O)N[C@@H](CCCNC(=N)N)C(=O)N[C@@H](CO)C(=O)N[C@@H](CC(C)C)C(=O)N2CCC[C@H]2C(=O)N2[C@@H](C[C@@H]3CCCC[C@@H]32)C(=O)N[C@@H]([C@@H](C)CC)C(=O)N1)C(=O)O
B13: Example 394: ((N-Me)G)-IC+SRSLPPIC+IPN-OH (peptide)
peptide: [Sar]ICSRSLPPICIPN-OH
modifications: disulfide 3-11; N-terminus assumed
SMILES: CC[C@H](C)[C@H](NC(=O)CNC)C(=O)N[C@H]1CSSC[C@@H](C(=O)N[C@H](C(=O)N2CCC[C@H]2C(=O)N[C@@H](CC(N)=O)C(=O)O)[C@@H](C)CC)NC(=O)[C@H]([C@@H](C)CC)NC(=O)[C@@H]2CCCN2C(=O)[C@@H]2CCCN2C(=O)[C@H](CC(C)C)NC(=O)[C@H](CO)NC(=O)[C@H](CCCNC(=N)N)NC(=O)[C@H](CO)NC1=O
B14: Example 330: ((3-Bromo)F)-IC+SRS-((tBu)A)-PPI-(Pen)+IPD-NH2 (peptide)
peptide: [Phe(3-Br)]ICSRS[tBuAla]PPI[Pen]IPD-NH2
modifications: disulfide 3-11; N-terminus assumed
SMILES: CC[C@H](C)[C@H](NC(=O)[C@@H](N)Cc1cccc(Br)c1)C(=O)N[C@H]1CSSC(C)(C)[C@@H](C(=O)N[C@H](C(=O)N2CCC[C@H]2C(=O)N[C@@H](CC(=O)O)C(N)=O)[C@@H](C)CC)NC(=O)[C@H]([C@@H](C)CC)NC(=O)[C@@H]2CCCN2C(=O)[C@@H]2CCCN2C(=O)[C@H](CC(C)(C)C)NC(=O)[C@H](CO)NC(=O)[C@H](CCCNC(=N)N)NC(=O)[C@H](CO)NC1=O

biological target: Recombinant human MASP2 enzyme (fragment corresponding to amino acids 297-686, C-terminal His Tag) (human, UniProt O00187 297-686); assay: cell-based or functional assay
Sequence (O00187 other isoform, or with tags, fused parts or gaps limits assumed): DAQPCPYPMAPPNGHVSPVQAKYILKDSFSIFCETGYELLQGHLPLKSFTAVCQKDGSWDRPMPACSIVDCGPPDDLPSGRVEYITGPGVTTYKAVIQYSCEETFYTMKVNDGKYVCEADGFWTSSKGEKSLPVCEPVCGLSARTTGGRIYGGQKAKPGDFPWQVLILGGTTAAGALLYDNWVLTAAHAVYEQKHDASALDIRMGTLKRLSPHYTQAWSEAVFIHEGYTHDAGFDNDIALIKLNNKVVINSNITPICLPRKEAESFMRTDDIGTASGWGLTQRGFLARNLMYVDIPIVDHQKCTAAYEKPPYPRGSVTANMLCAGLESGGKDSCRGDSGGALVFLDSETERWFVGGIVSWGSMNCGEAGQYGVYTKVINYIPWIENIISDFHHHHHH

human MASP2 IC50 | Binder
910 nM | B1
500 nM | B2
490 nM | B3
6500 nM | B4
1400 nM | B5
603 nM | B6
19 nM | B7
160 nM | B8
81 nM | B9
500 nM | B10
42 nM | B11
12 nM | {Tetrahydro‑2H‑pyran‑3‑ylacetic acid}-ICSRSLP[Oic]I[Pen]IP-NH2 (disulfide 2-10) [(Tetrahydro-2H-pyran-3-ylacetic acid)-IC+SRSLP-(Oic)-I-(Pen)+IP-NH2]
930 nM | B12

biological target: T1, Recombinant human MASP1 enzyme …; assay: cell-based or functional assay

human MASP1 IC50 | Binder
18 nM | B1
18 nM | B2
16 nM | B3
16 nM | B4
19 nM | B5
17 nM | B6
18 nM | B7
16 nM | B8
16 nM | B9
19 nM | B10
18 nM | B11
17 nM | {Tetrahydro‑2H‑pyran‑3‑ylacetic acid}-ICSRSLP[Oic]I[Pen]IP-NH2 (disulfide 2-10) [(Tetrahydro-2H-pyran-3-ylacetic acid)-IC+SRSLP-(Oic)-I-(Pen)+IP-NH2]
16 nM | B12

biological target: T2, recombinant human MASP1 active protease …; assay: cell-based or functional assay

human MASP1 IC50 | Binder
52 nM | B13
24 nM | B14
